Ten variants from FireProtDB (doi:10.1016/j.jmb.2010.11.028) can be followed below.

To fix the notation:
B1: Alpha-tocopherol transfer protein, P49638 (parent)
chain: MAEARSQPSAGPQLNALPDHSPLLQPGLAALRRRAREAGVPLAPLPLTDSFLLRFLRARDFDLDLAWRLLKNYYKWRAECPEISADLHPRSIIGLLKAGYHGVLRSRDPTGSKVLIYRIAHWDPKVFTAYDVFRVSLITSELIVQEVETQRNGIKAIFDLEGWQFSHAFQITPSVAKKIAAVLTDSFPLKVRGIHLINEPVIFHAVFSMIKPFLTEKIKERIHMHGNNYKQSLLQHFPDILPLEYGGEEFSMEDICQEWTNFIMKSEDYLSSISESIQ

Variants of B1 are the subject of this data set. The conditions noted are these: Homo sapiens; pH 7.4; Thermal; Fluorescence; Tris 50mM; structure 1R5L; whole UniProt chain shown.
As for MAEARSQPSAGPQLNALPDHSPLLQPGLAALRRRAREAGVPLAPLPLTDSFLLRFLRARDFDLDLAWRLLKNYYKWRAECPEISADLHPRSIIGLLKAGYHGVLRSRDPTGSKVLIYRIAHWDPKVFTAYDVFRVSLITSELIVQEVETQRNGIKAIFDLEGWQFSHAFQITPSVAKKIAAVLTDSFPLKVRGIHLINEPVAFHAVFSMIKPFLTEKIKERIHMHGNNYKQSLLQHFPDILPLEYGGEEFSMEDICQEWTNFIMKSEDYLSSISESIQ [I202A], the Tm was determined as 74.9 °C. Next, MAEARSQPSAGPQLNALPDHSPLLQPGLAALRRRAREAGVPLAPLPLTDSFLLRFLRARDFDLDLAWRLLKNYYKWRAECPEISADLHPRSIIGLLKAGYHGVLRSRDPTGSKVLIYRIAHWDPKVFTAYDVFRVSLITSELIVQEVETQRNGIKAIFDLEGWQFSHAFQITPSVAKKIAAVLTDSFPLKVRGIHLINEPVDFHAVFSMIKPFLTEKIKERIHMHGNNYKQSLLQHFPDILPLEYGGEEFSMEDICQEWTNFIMKSEDYLSSISESIQ [I202D]: 73.6 °C; MAEARSQPSAGPQLNALPDHSPLLQPGLAALRRRAREAGVPLAPLPLTDSFLLRFLRARDFDLDLAWRLLKNYYKWRAECPEISADLHPRSIIGLLKAGYHGVLRSRDPTGSKVLIYRIAHWDPKVFTAYDVFRVSLITSELIVQEVETQRNGIKAIFDLEGWQFSHAFQITPSVAKKIAAVLTDSFPLKVRGIHLINEPVIFHAVFSMIKPFLTEKIKERIHMHGNNYKQSLLQHFPDILPLEYGGEEFSMEDICQEWTNFIDKSEDYLSSISESIQ [M264D]: 68.8 °C. Next, MAEARSQPSAGPQLNALPDHSPLLQPGLAALRRRAREAGVPLAPLPLTDSFLLRFLRARDFDLDLAWRLLKNYYKWRAECPEISADLHPRSIIGLLKAGYHGVLRSRDPTGSKVLIYRIAHWDPKVFTAYDVFRVSLITSELIVQEVETQRNGIKAIFDLEGWQFSHAFQITPSVAKKIAAVLTDSFPLKVRGIHLINEPVIFHAAFSMIKPFLTEKIKERIHMHGNNYKQSLLQHFPDILPLEYGGEEFSMEDICQEWTNFIMKSEDYLSSISESIQ [V206A]: 78.2 °C; MAEARSQPSAGPQLNALPDHSPLLQPGLAALRRRAREAGVPLAPLPLTDSFLLRFLRARDFDLDLAWRLLKNYYKWRAECPEISADLHPRSIIGLLKAGYHGVLRSRDPTGSKVLIYRIAHWDPKVFTAYDVFRVSLITSELIVQEVETQRNGIKAIFDLEGWQFSHAFQITPSVAKKIAAVLTDSFPLKVRGIHLINEPVIFHADFSMIKPFLTEKIKERIHMHGNNYKQSLLQHFPDILPLEYGGEEFSMEDICQEWTNFIMKSEDYLSSISESIQ [V206D]: 76 °C; MAEARSQPSAGPQLNALPDHSPLLQPGLAALRRRAREAGVPLAPLPLTDSFLLRFLRARDFDLDLAWRLLKNYYKWRAECPEISADLHPRSIIGLLKAGYHGVLRSRDPTGSKVLIYRIAHWDPKVFTAYDVFRVSLITSELIVQEVETQRNGIKAIFDLEGWQFSHAFQITPSVAKKIAAVLTDSFPLKVRGIHLINEPVIFHAVFSDIKPFLTEKIKERIHMHGNNYKQSLLQHFPDILPLEYGGEEFSMEDICQEWTNFIMKSEDYLSSISESIQ [M209D]: 79.5 °C.

As to MAEARSQPSAGPQLNALPDHSPLLQPGLAALRRRAREAGVPLAPLPLTDSFLLRFLRARDFDLDLAWRLLKNYYKWRAECPEISADLHPRSIIGLLKAGYHGVLRSRDPTGSKVLIYRIAHWDPKVFTAYDVFRVSLITSELIVQEVETQRNGIKAIFDLEGWQFSHAFQITPSVAKKIAAVLTDSFPLKVRGIHLINEPVIFHAVFSAIKPFLTEKIKERIHMHGNNYKQSLLQHFPDILPLEYGGEEFSMEDICQEWTNFIMKSEDYLSSISESIQ [M209A], the midpoint of thermal melting (Tm) came out at 82.8 °C. MAEARSQPSAGPQLNALPDHSPLLQPGLAALRRRAREAGVPLAPLPLTDSFLLRFLRARDFDLDLAWRLLKNYYKWRAECPEISADLHPRSIIGLLKAGYHGVLRSRDPTGSKVLIYRIAHWDPKVFTAYDVFRVSLITSELIVQEVETQRNGIKAIFDLEGWQASHAFQITPSVAKKIAAVLTDSFPLKVRGIHLINEPVIFHAVFSMIKPFLTEKIKERIHMHGNNYKQSLLQHFPDILPLEYGGEEFSMEDICQEWTNFIMKSEDYLSSISESIQ [F165A]: the Tm worked out at 82.4 °C. For MAEARSQPSAGPQLNALPDHSPLLQPGLAALRRRAREAGVPLAPLPLTDSFLLRFLRARDFDLDLAWRLLKNYYKWRAECPEISADLHPRSIIGLLKAGYHGVLRSRDPTGSKVLIYRIAHWDPKVFTAYDVFRVSLITSELIVQEVETQRNGIKAIFDLEGWQDSHAFQITPSVAKKIAAVLTDSFPLKVRGIHLINEPVIFHAVFSMIKPFLTEKIKERIHMHGNNYKQSLLQHFPDILPLEYGGEEFSMEDICQEWTNFIMKSEDYLSSISESIQ [F165D], the Tm stood at 82.4 °C. For the variant MAEARSQPSAGPQLNALPDHSPLLQPGLAALRRRAREAGVPLAPLPLTDSFLLRFLRARDFDLDLAWRLLKNYYKWRAECPEISADLHPRSIIGLLKAGYHGVLRSRDPTGSKVLIYRIAHWDPKVFTAYDVFRVSLITSELIVQEVETQRNGIKAIFDLEGWQFSHAAQITPSVAKKIAAVLTDSFPLKVRGIHLINEPVIFHAVFSMIKPFLTEKIKERIHMHGNNYKQSLLQHFPDILPLEYGGEEFSMEDICQEWTNFIMKSEDYLSSISESIQ [F169A], the Tm amounted to 75.3 °C.
